Results from patent publication US20240400689A1 (ANTENGENE BIOLOGICS, published 2024).
Where a chain is given by its changes, count along the chain named.

T1: HUMAN B7H3 (Biacore analyte) (human, UniProt Q5ZPR3 29-461, limits assumed)
T1 construct: also called hB7H3
T1 sequence (looked up): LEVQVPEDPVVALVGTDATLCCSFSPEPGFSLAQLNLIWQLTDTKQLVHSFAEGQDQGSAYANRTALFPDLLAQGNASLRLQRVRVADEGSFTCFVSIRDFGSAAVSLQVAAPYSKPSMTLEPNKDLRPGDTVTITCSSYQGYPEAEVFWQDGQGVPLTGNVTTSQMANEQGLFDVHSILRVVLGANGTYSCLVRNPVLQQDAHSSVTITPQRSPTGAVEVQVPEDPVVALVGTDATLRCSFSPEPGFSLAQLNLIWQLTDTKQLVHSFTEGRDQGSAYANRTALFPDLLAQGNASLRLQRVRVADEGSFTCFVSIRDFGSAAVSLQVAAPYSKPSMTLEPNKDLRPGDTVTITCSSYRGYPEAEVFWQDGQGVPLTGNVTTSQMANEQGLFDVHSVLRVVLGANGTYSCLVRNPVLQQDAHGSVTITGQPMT

T2: human CD276 protein (human, UniProt Q5ZPR3 29-534)
T2 sequence (looked up): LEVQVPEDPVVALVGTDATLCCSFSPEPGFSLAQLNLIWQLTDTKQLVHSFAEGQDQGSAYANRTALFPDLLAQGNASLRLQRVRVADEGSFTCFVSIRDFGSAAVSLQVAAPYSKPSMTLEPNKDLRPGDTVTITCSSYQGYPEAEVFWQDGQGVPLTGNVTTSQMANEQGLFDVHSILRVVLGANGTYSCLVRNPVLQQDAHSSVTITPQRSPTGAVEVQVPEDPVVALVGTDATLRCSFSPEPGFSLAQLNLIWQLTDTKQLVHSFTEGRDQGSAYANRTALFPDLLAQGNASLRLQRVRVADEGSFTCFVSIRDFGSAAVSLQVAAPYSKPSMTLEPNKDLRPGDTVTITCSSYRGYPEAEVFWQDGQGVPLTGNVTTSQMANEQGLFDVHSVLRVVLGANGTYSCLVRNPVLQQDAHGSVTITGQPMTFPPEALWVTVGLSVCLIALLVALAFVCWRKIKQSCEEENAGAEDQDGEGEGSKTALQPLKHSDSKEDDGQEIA

B1: 10-G6-C4-B2_hVH2-VL1_PTM (antibody, V domains shown)
VH: EVQLVESGGGLVQPGGSLRLSCATSGFTLSDYYMSWVRQAPGKGLEWVSFMRNKANAYTTEYSASVRGRFTISRDTSKSTIYLQMNSLRAEDTAVYYCVRDREGRPFAYWGQGTLVTVSS
VL: DIVMTQSPDSLAVSLGERATINCKSSQSLLNAINQKNFLTWYQQKPGQPPKLLIYWASTRESGVPDRFSGSGSGTDFTLTISSLQAEDLAVYYCQNDYTYPLTFGQGTKLEIK
notes: humanized, PTM-optimized antibody from 10-G6-C4-B2
B2: 10-G6-C4-B2_hVH4-VL2_PTM (antibody, V domains shown)
VH: B1 VH with V12I, A40P
VL: DIVMTQSPLSLPVTPGEPASISCKSSQSLLNAINQKNFLTWYLQKPGQSPQLLIYWASTRESGVPDRFSGSGSGTDFTLKISRVEAEDLGVYYCQNDYTYPLTFGQGTKLEIK
notes: as for B1
B3: 10-G6-C4-B2_hVH3-VL3_PTM (antibody, V domains shown)
VH: B1 VH with S49G, T80S, R89K, A90T
VL: DIQMTQSPSSLSASVGDRVTITCKSSQSLLNAINQKNFLTWYQQKPGKAPKLLIYWASTRESGVPSRFSGSGSGTDFTLTISSLQPEDLATYYCQNDYTYPLTFGQGTKLEIK
notes: as for B1
B4: 10-G6-C4-B2_hVH5-VL3_PTM (antibody, V domains shown)
VH: B1 VH with G16R, A23T, S49G, T80I, R89K, A90T
VL: B3 VL
notes: as for B1
B5: 10-G6-C4-B2_hVH5-VL1_PTM (antibody, V domains shown)
VH: B1 VH with G16R, A23T, S49G, T80I, R89K, A90T
VL: B1 VL
notes: as for B1
B6: 10-G6-C4-B2_hVH4-VL1_PTM (antibody, V domains shown)
VH: B1 VH with V12I, A40P
VL: B1 VL
notes: as for B1
B7: 16-G3-D10-C10 (human IgG1 chimeric antibody) (antibody, V domains shown)
VH: QIQLVQSGPELKKPGETVKISCKASGYTFRNYGMNWVKQGPGKDLKWMGWINPYTGEPTYIGDFKGRFAFSLETSANSAYLQINNLNNEDMATYFCARDDGYWYTMDYWGQGTSVTVSS
VL: DVVMTQTPPSLPVSLGDQASIPCRSSQSLVHSNGITYLHWYLQKPGQSPKLLIYKVSNRFSGVPDRFSGSGSGTDFTLKISRVEAEDLGVYFCSQSTHVPWTFGGGTKLEIK
notes: human IgG1 chimeric antibody of the mouse clone
B8: 13-E4-G9-A4 (human IgG1 chimeric antibody) (antibody, V domains shown)
VH: EVMLVESGGGLVKPGGSLKFSCAASGFTFITYAMSWVRQTPEKRLEWVATISGGGIDTYYPDSVKGRFTISRDNAKNTLYLQVNSLRSEDTAMYYCTRQGSQGWGAMDYWGQGTSVTVSS
VL: QIVLTQSPPIMSASPGERVTMTCRASSRVSFMHWYQQKSGTSPRRWIYETSKLASGVPDRFSGSVSGTSYSLTISSMEAEDAATYYCQQWSSNPLTFGAGTKLELK
notes: as for B7
B9: 3-C2-C3-E7 (human IgG1 chimeric antibody) (antibody, V domains shown)
VH: EVQLQQSGPELVKPGASVKISCKTSGYTFTENTMHWVKQSHGKRLEWIGGINPNTGGTTYNQKFKGKATLTVDKSSSTAYMELRSLTSEDSAVYYCARRGTNWEHWYFDVWGAGTTVTVSS
VL: B8 VL with P9A, R18K, R24S, R28S, F31Y, R44K, E49D, D59A, V65G
notes: as for B7
B10: 27-F8-E10-E11 (human IgG1 chimeric antibody) (antibody, V domains shown)
VH: EVQLQQSGPELVKPGASVKISCKTSGYTFTEYAMHWVKQSHGKILEWIGGINPNIGGTTYNQKFKDKATLTVDKSSSTASMELRSLTSEDSAVYYCARFLVPSTEGFTYWGQGTLVTVSA
VL: QIVLTQSPAIMSASPGEKVTMTCSASSSVSYMHWYQQKSGTSPKRWIYDTSRVASGVPARFSGSGSGTSYSLTISSMEAEDAATYYCQQWSSNPLTFGAGTKLELK
notes: as for B7
B11: 22-E11-C3-F2 (human IgG1 chimeric antibody) (antibody, V domains shown)
VH: QIQLVQSGPELKRPGETVKISCKASGYSFTNYGMNWVKQAPGKGLKWMGWINPYTGEPTYADDFKGRFAMSLETSASAAYLQINNLKNEDMATYFCGRDDGYHYTMNYWGQGTSVTVSS
VL: B7 VL with T7P, P9L, P22S, V30I, I35D, N58I, H98Y
notes: as for B7
B12: 20-C5-D7-D3 (human IgG1 chimeric antibody) (antibody, V domains shown)
VH: EVQLVESGGDLVKPGGSLKLSCAASGFTFRSYGMSWVRQTPDKRLEWVATISGGGNYTYYPDSVKGRFTISRDNAKNTLYLQMSSLKSEDTAMYYCARHEGLPLDYWGQGTTLTVSS
VL: DIQMTQSPASLSASVGETVTITCRASENIYSYLAWYQQKQGKSPQLLVYNAKTLAEGVPSRFSGSGSGTQFSLKINSLQPEDFGNFYCQHHYGTPTWTFGGGTKLEIK
notes: as for B7
B13: 10-B9-D10-A12 (human IgG1 chimeric antibody) (antibody, V domains shown)
VH: EVQLQESGPELVRPGVSVKISCKGSGYTFTDYTMHWVKLSHAKSLEWIGVISTYYGNTNYNQKFKGKATLTVDKSSSTAYMELARLTSEDSAIYYCARASYGSGYGPYYWYFDVWGAGTTVTVSS
VL: DIQMTQSPASLFASVGETVTITCRASEKIYSYLAWYFQKQGKSPQFLVYNANALAEGVPSRFSGSGSGTQFSLKINSLQPEDFGTYYCQHHYGTPVTFGAGSKLELK
notes: as for B7
B14: 30-E2-G7-G7 (human IgG1 chimeric antibody) (antibody, V domains shown)
VH: EVQLQESGGGLVKPGGSLKLSCAASGFTFSYYAMSWVRQTPEKRLEWVATINGDGSHTYYPDSVRGRFTISRDNAKNTLYLQVSSLRSEDTAMYYCASLLQLGPFWGQGTTLTVSS
VL: DIVMTQSQKFMSTSVGDRVSVTCKASQNVGTNVAWYHQRPGQSPKPLIYSASYRYSGVPDRFTGSGSGTDFTLTISNVQSEDLAEYFCQQYNNYPLTFGSGTKLEIK
notes: as for B7
B15: 15-G1-D1-E3 (human IgG1 chimeric antibody) (antibody, V domains shown)
VH: QVQLQQPGAELVKPGTSVKLSCKASGYTFTSYWIHWVKQRPGQGLEWIGMIHPKSGTVDYNEKFKSKATLTADKSSNTAYMQLSSLTSEASVVYYCARGENYDYRPQFVYWGQGTLVTVSA
VL: QLVLTQSSSASFSLGASAKLTCTLSSQHSTYTIEWYQQQPLKPPKYVMELKKDGSHRTGDGIPDRFSGSSSGADRYLSISNIQPEDEAIYICGVGDTIKEQFVYVFGGGTKVTVL
notes: as for B7

target: T1, HUMAN B7H3 (Biacore analyte); test: SPR, Biacore 8K, antibody captured, B7H3 as analyte, 1:1 binding

Row | Kd | koff | kon | Binder
1 | 0.851 nM | 7.26e-05 s⁻¹ | 85300 M⁻¹ s⁻¹ | B1
2 | 1.35 nM | 7.12e-05 s⁻¹ | 52700 M⁻¹ s⁻¹ | B2
3 | 0.0087 nM | 1.02e-06 s⁻¹ | 118000 M⁻¹ s⁻¹ | B3
4 | 0.00692 nM | 1.01e-06 s⁻¹ | 146000 M⁻¹ s⁻¹ | B4
5 | 0.0929 nM | 1.37e-05 s⁻¹ | 147000 M⁻¹ s⁻¹ | B5
6 | 1.73 nM | 0.000155 s⁻¹ | 89600 M⁻¹ s⁻¹ | B6

target: T2, human CD276 protein; test: cell-based or functional assay

Row | EC50 of antibody induced CDC effect | Binder | Top cytotoxicity (%), CDC
7 | 1.43 nM | B7 | 93.6%

target: T2, human CD276 protein; test: cell-based or functional assay; remark: another data set of the same source

Row | EC50 of antibody induced ADCC effect on SKOV3 | Binder
8 | 0.876 µg/mL | B8
9 | 0.186 µg/mL | B9
10 | 0.0238 µg/mL | B10
11 | 0.0419 µg/mL | B7
12 | 0.0179 µg/mL | B11
13 | 0.069 µg/mL | B12
14 | 0.259 µg/mL | B13
15 | 0.247 µg/mL | B14
16 | 0.0655 µg/mL | B15

target: T1, HUMAN B7H3 (Biacore analyte); test: SPR, Biacore 8K, antibody captured, B7H3 as analyte, 1:1 binding; remark: another data set of the same source

Row | Kd | koff | kon | Binder
17 | 0.621 nM | 0.000173 s⁻¹ | 278000 M⁻¹ s⁻¹ | B10
18 | 1.16 nM | 0.000214 s⁻¹ | 185000 M⁻¹ s⁻¹ | B7
19 | 0.644 nM | 0.000416 s⁻¹ | 645000 M⁻¹ s⁻¹ | B12
20 | 0.752 nM | 0.000282 s⁻¹ | 375000 M⁻¹ s⁻¹ | B13
21 | 0.383 nM | 0.000211 s⁻¹ | 550000 M⁻¹ s⁻¹ | B15

target: T2, human CD276 protein; test: cell-based or functional assay; remark: another data set of the same source

Row | Binder | IC50 of indirect ADC cytotoxicity on SKOV3
22 | B8 | 0.021 nM
23 | B11 | 0.016 nM
24 | B12 | 0.007 nM
25 | B13 | 0.021 nM

target: T2, human CD276 protein; test: FACS on SKOV3 cells
Excerpt: Sequences of 31 mouse antibodies from Table 5 were selected to generate and produce human IgG1 chimeric antibodies. The binding affinity of these antibodies and bench mark antibody, Enoblituzumab (see U.S. Pat. No. 8,802,091, MGA271, specifically with a construct designated as hBRCA84D-2) and MGC018 (an antibody-drug-conjugate, in which the mAb MGA017 (human IgG1) is conjugated via a cleavable linker to the prodrug seco-DUocarmycin hydroxyBenzamide Azaindole (DUBA), an alkylating agent that can damage DNA in both dividing and non-dividing cells, thereby causing cell death) with human patient derived ovarian cancer cell line, SKOV3, was determined by FACS analysis.
1. Digested cells using Trypsin (1×); Centrifuged the harvested cells at 300 g for 3 min and discarding the supernatant. […] 2. Washed the cells 2 times with FACS buffer by centrifuging at 300 g for 3 min and discarding the supernatant. [0445] 3. […] Kept the cells in dark for FACS analysis.

Row | EC50 | MFI (Max) | Binder
26 | 1.77 µg/mL | 3080 | B8
27 | 1.43 µg/mL | 3700 | B9
28 | 2.26 µg/mL | 3220 | B10
29 | 1.31 µg/mL | 3180 | B7
30 | 0.523 µg/mL | 5540 | B11
31 | 0.941 µg/mL | 2310 | B12
32 | 2.08 µg/mL | 3880 | B13
33 | 0.814 µg/mL | 5630 | B14
34 | 0.811 µg/mL | 3190 | B15
